# Tests used:
# [1] = target: HIV-1 HXB2 Env (gp41 N-trimer region) (HIV-1 HXB2, UniProt P04578 33-856); experiment: cell-based or functional assay
# [2] = target: HIV-1 JRFL Env (gp41 N-trimer region) (HIV-1 JRFL); experiment: cell-based or functional assay
# IZN36 (biotinylated …) = target: T1, IZN36 (biotinylated Cys-Gly-Gly-Asp-IZN36, His tag removed); experiment: SPR, immobilised IZN36; compared with MBP-C37
# T1 construct: also called biotinylated IZN36
binder,measurement,setting,value
"MBP1-C37 (other, domain: C-peptide (C37)) SSSGGGSGGGSGGGSSSSGGHTTWMEWDREINNYTSLIHSLIEESQNQQEKNEQELLHHHHHH","IC50, viral infectivity HXB2",[1],88.9 nM
same,"IC50, viral infectivity JRFL",[2],640 nM
same,KD difference from MBP-C37,IZN36 (biotinylated …),< 20%
"MBP2-C37 (other, domain: C-peptide (C37)) SSSGGGSGGGSGGGSSGGGSGGGSGGGSSSSGGHTTWMEWDREINNYTSLIHSLIEESQNQQEKNEQELLHHHHHH","IC50, viral infectivity HXB2",[1],79.2 nM
same,"IC50, viral infectivity JRFL",[2],516 nM
same,KD difference from MBP-C37,IZN36 (biotinylated …),< 20%
SSSSSGGHTTWMEWDREINNYTSLIHSLIEESQNQQEKNEQELLHHHHHH (other) [MBP-C37],"IC50, cell-cell fusion (HXB2 Env)",[1],192 nM
same,"IC50, viral infectivity HXB2",[1],206 nM
same,"IC50 ratio (cell-cell fusion), relative to C37",[1],225
same,"IC50 ratio HXB2 (viral infectivity), relative to C37",[1],74.8
same,"IC50, viral infectivity JRFL",[2],1870 nM
same,"IC50 ratio JRFL (viral infectivity), relative to C37",[2],228

# From patent US20070122429A1 (published 2007)
